{"source": "patent US20230183305A1", "about": "“KERATIN BD-11, PREPARATION METHOD THEREFOR AND PHARMACEUTICAL COMPOSITION AND USE THEREOF” (INSTITUTE OF MATERIA MEDICA, CHINESE ACADEMY OF MEDICAL …, priority 2019, published 2023)", "system": "ammonia water induced cough in ICR mice", "experiment": "Antitussive test, cough induced by ammonia water in mice", "format": "in vivo, mouse", "conditions": "for Incubation period (cough): 10% ammonia water 10 s; for Incubation period (cough) / Number of coughs: X±SEM, n=9; for Number of coughs: within 2 minutes", "experimental": "• Animals: male ICR mice; • Drugs and reagents: dextromethorphan hydrobromide, ammonia water, 0.2% CMC-Na, protein BD-11; • Apparatus: Compressed nebulizer (403T type), balance (XS105DU type).\nExperiment grouping: • Solvent control group; • Dextromethorphan 15 mg/kg group; • Protein BD-11, 20 mg/kg group, 50 mg/kg group.\nDextromethorphan and different doses of protein BD-11 (administration volume 10 ml/kg) were given orally in groups, and the solvent control group was given the same volume of distilled water. One hour later, mice were put into a sealed box and atomized 10% ammonia water for 10 seconds, and then observed and recorded the incubation period of cough in mice and the number of coughs in 2 minutes.\nRecord the time point of oral administration, the time point of atomization experiment, the incubation period of mice cough and the number of coughs within 2 minutes, respectively. The incubation period of cough refers to the number of seconds from the start of the atomization of ammonia to the occurrence of cough. The performance of coughing in mice is based on contraction of their abdominal muscles (breast contraction) and opening their mouths at the same time. Calculate the mean and standard error of each group of data, and use TTEST to compare the model group with other groups, and P<0.05 is considered as a significant difference.\nGive dextromethorphan (15 mg/kg) and different doses of protein BD-11 (20 mg/kg, 50 mg/kg) in advance, One hour later, the mice were put into a sealed box and atomized 10% ammonia water for 10 seconds, and then the mice were observed and recorded the incubation period of coughing and the number of coughs within 2 minutes.", "key": {"[1]": {"conditions": "BD-11 50 mg/kg dose group, P<0.05"}}, "data": [{"molecule": "BD-11: recombinant keratin, amino acid sequence SEQ ID NO:1, expressed in E. coli, band around 59 kD; Example 4 batch tested (protein, listed as Bos taurus) MSRQSTITFQTSSRRGFSTASATTPATSRSRFSSASVTHSPAGSGGLGRISGFGSRSLYNLGGTKRVSISGCGSNFRSGFGGRASSGFGVSGGFGYGGGIGGGHGGCGFSVCPPGGIQEVTVNQSLLTPLNLQIDPNIQRVRKEEREQIKTLNNKFASFIDKVRFLEQQNKVLETKWSLLQEQGTRTVRQSLEPFFEAYITDLRRQLDSITTERGRLDAELRTMQDVVEDFKVRYEDEINKRTAAENEFVALKKDVDAAYLNKVDLEAKANSLTDEINFLQMLFEAELCQMQTRVSDTSVVLSMDNNRSLDLDSIIAEVKAQYEEIANRSRAEAESWYQTKYEELQVTAGQHGDDLRNTKQEISETNRMIQRLRAEIDNVKKQCASLQTAIADAEQRGELALKDARAKLVDLEEALQKSKQDMARLLREYQELMNIKLALDVEIATYRKLLEGEECRLSGEGVSPVNISVVTSTVSSGYGGGSSIGSGSLGLSGGSGCSFMTSGGHSLGGSSFSNSSSRGLGGSGSSFKFVSTTSSSRKSYKH", "values": [{"measurement": "Incubation period (cough)", "setting": "BD-11 20 mg/kg oral", "result": "30.0 ± 3.2", "unit": "s"}, {"measurement": "Number of coughs", "setting": "BD-11 20 mg/kg oral", "result": "61.8±4.7"}, {"measurement": "Cough incubation period vs solvent control group", "setting": "[1]", "result": "significant improvement"}, {"measurement": "Number of coughs vs solvent control group", "setting": "[1]", "result": "significant improvement effect"}, {"measurement": "Incubation period (cough)", "setting": "BD-11 50 mg/kg oral", "result": "35.8 ± 2.0", "unit": "s"}, {"measurement": "Number of coughs", "setting": "BD-11 50 mg/kg oral", "result": "50.0±4.6"}, {"measurement": "Effect on cough incubation period (summary)", "setting": "dose not given", "result": "prolong the incubation period"}, {"measurement": "Effect on number of coughs (summary)", "setting": "dose not given", "result": "significantly reduce the number of coughs"}]}]}
